In patent publication US9408922B2, “Anti-tofacitinib antibodies and uses thereof for drug monitoring” (Pfizer Inc., priority 2012, dated 2016):
Residue numbers refer to the chain shown, from its start.

How the values were obtained:
Assay type in all cases: binding
[1] = Competitive immunoassay-3 with Metabolite 1 as competitor (Example 7); details: for 4-P Fit parameter C, Concentration vs % B/B0: Metabolite 1 as competitor, biotinylated tofacitinib 1 ng/ml; for cross reactivity to metabolite 1 (in words, FIG. 3): competitive immunoassay
Procedure: (§1) After washing the plates, 200 μl of streptavidin-HRP (50 ng/ml) was added and the plates were then incubated for 0.5-1 hour at room temperature. After washing the plates again, 200 μl of TMB (3,3′,5,5′-Tetramethylbenzidine) substrate was added, then color developed for 30 minutes, and the reaction was stopped by adding 50 μl 2 N sulfuric acid. Absorbance at 450 nm was measured.
For this example, eleven anti-tofacitinib monoclonal antibodies were screened for cross reactivity with metabolite 1 using competitive immunoassay. […] After washing the plates, 200 μl of streptavidin-HRP (50 ng/ml) was added and then incubated for 0.5-1 hour at room temperature. After washing the plates again, 200 μl of TMB substrate was added, then developed for 30 minutes, and stopped by adding 50 μl 2 N sulfuric acid. Absorbance at 450 nm was measured.

[2] = Antigen competition immunoassay, unlabeled tofacitinib vs biotinylated tofacitinib (Example 8)
Procedure: After washing the plates, 200 μl of streptavidin-HRP (50 ng/ml) was added and then incubated for 0.5-1 hour at room temperature. After washing the plates again, 200 μl of TMB substrate was added, then developed for 30 minutes, and stopped by adding 50 μl 2N sulfuric acid. Absorbance at 450 nm was measured.

[3] = Cross reactivity competitive ELISA with Metabolite 1 (Example 9); details: metabolite 200,000 to 200 ng/ml; antibody at EC50 dilution
Procedure: (§2) Two clones, 6D9.A8 and 12D4.G6, were tested for cross reactivity to metabolites 1 and 2. In this experiment, the metabolites were prepared at concentrations of 200,000 to 200 ng/ml and the antibody clones were prepared at their EC50 dilutions shown in Table 1.

[4] = Cross reactivity competitive ELISA with Metabolite 2 (Example 9); details: metabolite 200,000 to 200 ng/ml; antibody at EC50 dilution
Procedure: as §2

[5] = Antigen ED50 in cross reactivity experiment (Example 9); details: antibody at EC50 dilution; biotinylated tofacitinib 1 ng/mL
Procedure: as §2

[6] = Standard curve with tofacitinib, ELISA (Example 10); details: biotinylated tofacitinib 1 ng/ml
From the text: FIG. 4 is a graph depicting optimal dilution ranges of select monoclonal antibodies of the invention, e.g., 6D9.A8 (open circles) and 12D4.G6 (open squares) as determined by ELISA.

[7] = Tofacitinib dose response curves with antibody clones (Example 12); details: for Antigen ED50: Table 10; for Tofacitinib ED50: tofacitinib 0.001 to 1000 ng/ml, antibody dilution 1:25,600 (6D9.A5), 1:4,000 (6D9.A8), 1:22,000 (12D4.G6); for 4-P Fit parameter C, Concentration vs % B/B0: tofacitinib standard curve
From the text: Further, the data used to generate the graph shown in FIG. 5 are set forth below in Table 9.

[8] = Cross reactivity to Metabolite 1, competitive immunoassay-3 or direct ELISA (Example 12); details: for Metabolite 1 Cross reactivity: Table 10
Procedure: as §1

[9] = Cross reactivity to Metabolite 2, competitive immunoassay-3 or direct ELISA (Example 12); details: for Metabolite 2 Cross reactivity: Table 10
Procedure: as §1

[10] = unlabeled tofacitinib 1000 to 0.001 ng/ml, antibody at EC50 dilution

B1: 12H4.G2: mouse monoclonal anti-tofacitinib antibody; VH SEQ ID NO:8, VL SEQ ID NO:9 (antibody, listed as Mus musculus, V domains shown)
VH: DVQLQGSGPDLVKPSQSLSLTCTVTGYSITSGYSWNWIRQFPGNTLEWMGFIHYSGSTNYNPSLKSRISITRDTSKNQFFLQLNSVTTEDTATYYCVRGPYGSSFYWGQGTTLTVSS
VL: QAVVTQESALTTSPGETVTLTCRSSTGAVTTSNYATWVQEKPDHLFTGLIGGTNNRAPGVPARFSGSLIGDKAALTLTGAQTEDEAIYFCALWYSNHWVFGGGTKLTVL
4-P Fit parameter C, Concentration vs % B/B0 [1]: 0.383 | cross reactivity to metabolite 1 (in words, FIG. 3) [1]: did not detectably bind metabolite 1

B2: 10A6.C5: mouse monoclonal anti-tofacitinib antibody; VH SEQ ID NO:3, VL SEQ ID NO:4 (antibody, listed as Mus musculus, V domains shown)
VH: B1 VH with G6E, F51Y
VL: NIVMTQSPKSMSMSVGERVTLTCKASENVVTYVSWYQQKPEQSPKLLIYGASNRYTGVPDRFTGSGSATDFTLTISSVQAEDLADYHCGQGYSYPYTFGGGTKLEIKR
4-P Fit parameter C, Concentration vs % B/B0 [1]: 0.389 | cross reactivity to metabolite 1 (in words, FIG. 3) [1]: did not detectably bind metabolite 1

B3: 5A3.E5: mouse monoclonal anti-tofacitinib antibody; VH SEQ ID NO:1, VL SEQ ID NO:2 (antibody, listed as Mus musculus, V domains shown)
VH: EVKLVESGGGLVQPGGSLRLSCATSGFTFNDYYMTWVRQPPGKALEWLGFIRNKADGYTPYYSPSVKGRFTISRDNSQSILYLQMNTLRTEDSATYYCARPHYYGFPFGYWGQGTLVTVSA
VL: B1 VL with S32N, T36N, N55S, L77I, I87M
4-P Fit parameter C, Concentration vs % B/B0 [1]: 0.191 | cross reactivity to metabolite 1 (in words, FIG. 3) [1]: did not detectably bind metabolite 1

B4: 16F10.E6: mouse monoclonal anti-tofacitinib antibody; VH SEQ ID NO:10, VL SEQ ID NO:11 (antibody, listed as Mus musculus, V domains shown)
VH: B1 VH with V2M, G6E, F51Y, S57N, N59V, I68L
VL: DIVMTQSQKFMSTSVGDRVSVTCKASQNVGTNVAWYQQKPGQSPKALIYSASYRYSGVPDRFTGSGSGTDFTLTISNVQSEDLAEYFCQQYYNYPLTFGAGTKLELKR
cross reactivity to metabolite 1 (in words, FIG. 3) [1]: did not detectably bind metabolite 1

B5: 10F10.H5: mouse monoclonal anti-tofacitinib antibody; VH SEQ ID NO:5, VL SEQ ID NO:6 (antibody, listed as Mus musculus, V domains shown)
VH: B1 VH with G6E, F51Y, S57T, T88A, V97A, T114A
VL: QIVLTQSPAIMSASPGEKVTVTCSASSSVSSMHWFQQKPGTSPKLWIYSTSNLASGVPTRFSGSGSGTSYSLTISRMEAEDVATYYCQQRNNYPYTFGGGTKLEIKR
4-P Fit parameter C, Concentration vs % B/B0 [1]: 0.345 | cross reactivity to metabolite 1 (in words, FIG. 3) [1]: did not detectably bind metabolite 1

B6: 12D4.G6: mouse monoclonal anti-tofacitinib antibody; VH SEQ ID NO:12, VL SEQ ID NO:4 (antibody, listed as Mus musculus, V domains shown)
VH: QVQLKESGPGLVAPSQSLSITCTVSGFSLSIYSVHWVRQPPGKGLEWLGMIWGGGNTDYNSVLKSRLSISKDNSKSQVFLKVNSLQTDDTAMYYCARIYYGIFWGQGTLVTVSA
VL: B2 VL
4-P Fit parameter C, Concentration vs % B/B0 [1]: 2.14 × 10^7 | cross reactivity to metabolite 1 (in words, FIG. 3) [1]: did not detectably bind metabolite 1 | competition by unlabeled tofacitinib for binding to biotinylated tofacitinib (in words) [2]: competition was seen | ED20 [2, 10]: 457 ng/mL | ED50 [2, 10]: 104 ng/mL | ED80 [2, 10]: 24 ng/mL | Metabolite-1 Cross reactivity [3]: 4.17% | Metabolite-2 Cross reactivity [4]: 0.15% | Antigen ED50 [5]: 152 ng/mL | 4-P Fit parameter C [6]: 109 | Antigen ED50 [7]: 118 ng/mL | Tofacitinib ED50 [7]: 118 ng/mL | 4-P Fit parameter C, Concentration vs % B/B0 [7]: 108 | binding of metabolite 1 (in words) [8]: did not substantially bind | Metabolite 1 Cross reactivity [8]: 4.17% | binding of metabolite 2 (in words) [9]: did not substantially bind | Metabolite 2 Cross reactivity [9]: 0.15%

B7: 6D9.A5: mouse monoclonal anti-tofacitinib antibody; VH SEQ ID NO:7, VL SEQ ID NO:4; replacement subclone for 6D9.A8 (antibody, listed as Mus musculus, V domains shown)
VH: B6 VH with Q16E, S19T, I31R, V34I, N56S, S68T, S70R, N73Y, V82M, F103Y
VL: B2 VL
notes: mouse monoclonal anti-tofacitinib antibody; replacement subclone for 6D9.A8
cross reactivity to metabolite 1 (in words, FIG. 3) [1]: did not detectably bind metabolite 1 | binding of the parent drug, potency compared with antibody 12D4.G6 (in words) [7]: more potent binders of the parent drug | Antigen ED50 [7]: 244 ng/ml ng/mL | Tofacitinib ED50 [7]: 244 ng/mL | 4-P Fit parameter C, Concentration vs % B/B0 [7]: 224 | binding of metabolite 1 (in words) [8]: did not substantially bind | Metabolite 1 Cross reactivity [8]: 4.47% | binding of metabolite 2 (in words) [9]: did not substantially bind | Metabolite 2 Cross reactivity [9]: <0.01%
